Measurements reported in US20250082770A1 (SYNAFFIX B V, published 2025).

What was measured:
CEACAM5 on MKN-45 cells = biological target: T1, CEACAM5 on MKN-45 cells (UniProt P06731 35-702, limits assumed); test: cell-based or functional assay
T1 sequence (looked up): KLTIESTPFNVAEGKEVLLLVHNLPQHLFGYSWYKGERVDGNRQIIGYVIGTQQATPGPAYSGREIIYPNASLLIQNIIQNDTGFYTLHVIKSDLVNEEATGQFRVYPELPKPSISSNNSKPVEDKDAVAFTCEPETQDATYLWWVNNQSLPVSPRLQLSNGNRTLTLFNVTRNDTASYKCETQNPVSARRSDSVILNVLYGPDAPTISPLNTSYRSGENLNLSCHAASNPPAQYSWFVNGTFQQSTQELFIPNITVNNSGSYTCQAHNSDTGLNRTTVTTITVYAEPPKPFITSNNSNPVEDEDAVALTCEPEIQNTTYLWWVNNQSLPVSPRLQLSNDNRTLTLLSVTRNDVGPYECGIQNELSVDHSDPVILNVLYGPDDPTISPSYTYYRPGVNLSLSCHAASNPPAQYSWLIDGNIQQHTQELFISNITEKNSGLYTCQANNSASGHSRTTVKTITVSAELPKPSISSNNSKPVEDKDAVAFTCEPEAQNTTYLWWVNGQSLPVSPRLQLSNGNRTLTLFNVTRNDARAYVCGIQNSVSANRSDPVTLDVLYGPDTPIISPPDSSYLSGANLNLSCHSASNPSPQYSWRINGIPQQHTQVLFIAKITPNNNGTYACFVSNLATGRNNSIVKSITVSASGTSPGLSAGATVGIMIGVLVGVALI

[1] = biological target: T2, Human CEACAM5 (CD66e protein, His Tag, Sino Biological) (human, UniProt P06731 35-685); test: ELISA, His-tagged antigen on nickel NTA plate, anti-human IgG-HRP detection
T2 construct: Bought His-tagged protein captured on nickel NTA plates; also called hCEACAM5; hCD66e; not shown: His tag
T2 sequence (looked up): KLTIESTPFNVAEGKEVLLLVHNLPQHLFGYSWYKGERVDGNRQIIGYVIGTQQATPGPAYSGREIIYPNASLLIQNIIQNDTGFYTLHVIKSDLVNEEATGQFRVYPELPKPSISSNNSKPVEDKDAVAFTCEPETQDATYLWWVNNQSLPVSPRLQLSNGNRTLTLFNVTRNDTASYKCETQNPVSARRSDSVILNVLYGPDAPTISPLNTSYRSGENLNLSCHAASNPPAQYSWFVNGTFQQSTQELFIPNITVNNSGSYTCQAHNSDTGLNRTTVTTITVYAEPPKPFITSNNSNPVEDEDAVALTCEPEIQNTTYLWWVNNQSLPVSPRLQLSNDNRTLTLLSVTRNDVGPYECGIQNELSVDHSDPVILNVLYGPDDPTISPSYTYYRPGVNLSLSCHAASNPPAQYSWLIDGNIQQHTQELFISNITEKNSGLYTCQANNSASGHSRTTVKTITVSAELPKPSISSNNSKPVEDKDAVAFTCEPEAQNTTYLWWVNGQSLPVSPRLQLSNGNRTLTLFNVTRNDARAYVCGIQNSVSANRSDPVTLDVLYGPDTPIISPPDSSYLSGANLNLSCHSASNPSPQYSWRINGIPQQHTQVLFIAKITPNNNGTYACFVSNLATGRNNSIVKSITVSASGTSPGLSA
Procedure: (§1) Nickel NTA plates (Pierce™ Nickel coated plated, ThermoScientific™) were washed three times prior to use. Human CEACAM5 (CD66e protein, His Tag, Sino Biological), human CEACAM6 (CD66c protein, His Tag, Sino Biological) and cynomolgus CEACAM5 (CD66e protein, His Tag, Sino Biological) were dissolved at a concentration of 0.05 μg/mL in 0.1% BSA in PBS (PBA). 100 μL was added to each well and incubated while shaking for 1 hour at room temperature. After removal, the plate was washed 3× with 0.05% Tween-20 in PBS (washing buffer). ADCs were diluted in 0.1% PBA to a final concentration of 8 μg/mL and 100 μL was added to each well (in triplo). ADCs were incubated for 1 h at room temperature. Prior to the addition of 100 μL 1:100 dilution of secondary antibody (Goat anti-human IgG, HRP conjugate, Invitrogen) the plate was washed 3× with washing buffer. The plate was incubated again for 1 h at room temperature and subsequently washed 3× with washing buffer and 3× with PBS. Finally, 100 μL TMB ELISA substrate (1 Step™ Turbo TMB ELISA substrate, ThermoScientific™) was added and incubated for 1 minute. The absorbance of the colorimetric signal was measured with Infinite® M1000 (Tecan) at 605 nm. Data was plotted corrected for the background (see FIGS. 9).

[2] = biological target: T3, human CEACAM6 (CD66c protein, His Tag, Sino Biological) (human, UniProt P40199 35-320); test: as above
T3 construct: Bought His-tagged protein captured on nickel NTA plates; also called hCEACAM6; hCD66c; not shown: His tag
T3 sequence (looked up): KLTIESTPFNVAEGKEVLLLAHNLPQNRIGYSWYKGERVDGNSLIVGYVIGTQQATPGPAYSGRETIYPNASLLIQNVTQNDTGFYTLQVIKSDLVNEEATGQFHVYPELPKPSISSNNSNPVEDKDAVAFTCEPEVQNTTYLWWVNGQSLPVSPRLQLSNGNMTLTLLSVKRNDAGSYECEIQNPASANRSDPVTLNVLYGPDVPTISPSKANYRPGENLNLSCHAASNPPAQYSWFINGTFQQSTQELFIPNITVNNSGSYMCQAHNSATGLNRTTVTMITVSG
Procedure: as §1

Binder	MKN-45, IC50 (CEACAM5 on MKN-45 cells) [nM]	binding result [1]	binding result [2]
labetuzumab-3 (antibody, human IgG1, kappa, V domains shown, heavy-chain glycan trimmed to core GlcNAc, 6-N3-GalNAc attached and reacted with BCN-HS-PEG2-HS-(va-PAB-Ex)2 3 (exatecan payload); average DAR 3.90) VH: EVQLVESGGGVVQPGRSLRLSCSASGFDFTTYWMSWVRQAPGKGLEWIGEIHPDSSTINYAPSLKDRFTISRDNAKNTLFLQMDSLRPEDTGVYFCASLYFGFPWFAYWGQGTPVTVSS VL: DIQLTQSPSSLSASVGDRVTITCKASQDVGTSVAWYQQKPGKAPKLLIYWTSTRHTGVPSRFSGSGSGTDFTFTISSLQPEDIATYYCQQYSLYRSFGQGTKVEIKR	6.5	–	–
labetuzumab (antibody, human IgG1, kappa, V domains shown, IgG transiently expressed in CHO K1 cells; also called labetuzumab (II); hMN-14) VH: EVQLVESGGGVVQPGRSLRLSCSASGFDFTTYWMSWVRQAPGKGLEWIGEIHPDSSTINYAPSLKDRFTISRDNAKNTLFLQMDSLRPEDTGVYFCASLYFGFPWFAYWGQGTPVTVSS VL: DIQLTQSPSSLSASVGDRVTITCKASQDVGTSVAWYQQKPGKAPKLLIYWTSTRHTGVPSRFSGSGSGTDFTFTISSLQPEDIATYYCQQYSLYRSFGQGTKVEIKR	–	binds	no binding (tested: 8 µg/mL)
tusamitamab-DM4 (antibody, human IgG1, kappa, V domains shown, SPDB-DM4 conjugated, sites not stated; average DAR 3.4) VH: EVQLQESGPGLVKPGGSLSLSCAASGFVFSSYDMSWVRQTPERGLEWVAYISSGGGITYAPSTVKGRFTVSRDNAKNTLYLQMNSLTSEDTAVYYCAAHYFGSSGPFAYWGQGTLVTVSS VL: DIQMTQSPASLSASVDRVTITCRASENIFSYLAWYQQKPGKSPKLLVYNTRTLAEGVPSRFSGSGSGTDFSLTISSLQPEDFATYYCQHHYGTPFTFGSGTKLEIKR	2.6	–	–
tusamitamab (antibody, human IgG1, kappa, V domains shown, IgG transiently expressed in CHO K1 cells; also called tusamitamab (I); huMAb2-3) VH: EVQLQESGPGLVKPGGSLSLSCAASGFVFSSYDMSWVRQTPERGLEWVAYISSGGGITYAPSTVKGRFTVSRDNAKNTLYLQMNSLTSEDTAVYYCAAHYFGSSGPFAYWGQGTLVTVSS VL: DIQMTQSPASLSASVDRVTITCRASENIFSYLAWYQQKPGKSPKLLVYNTRTLAEGVPSRFSGSGSGTDFSLTISSLQPEDFATYYCQHHYGTPFTFGSGTKLEIKR	–	–	no binding (tested: 8 µg/mL)
tusamitamab-6 (antibody, human IgG1, kappa, V domains shown, heavy-chain glycan trimmed to core GlcNAc, 6-N3-GalNAc attached and reacted with BCN-HS-PEG2-HS-(vc-PABA-Ahx-May)2 6 (maytansinoid payload); average DAR 3.85) VH: EVQLQESGPGLVKPGGSLSLSCAASGFVFSSYDMSWVRQTPERGLEWVAYISSGGGITYAPSTVKGRFTVSRDNAKNTLYLQMNSLTSEDTAVYYCAAHYFGSSGPFAYWGQGTLVTVSS VL: DIQMTQSPASLSASVDRVTITCRASENIFSYLAWYQQKPGKSPKLLVYNTRTLAEGVPSRFSGSGSGTDFSLTISSLQPEDFATYYCQHHYGTPFTFGSGTKLEIKR	0.88	–	–
tusamitamab-3 (antibody, human IgG1, kappa, V domains shown, heavy-chain glycan trimmed to core GlcNAc, 6-N3-GalNAc attached and reacted with BCN-HS-PEG2-HS-(va-PAB-Ex)2 3 (exatecan payload); average DAR 3.89) VH: EVQLQESGPGLVKPGGSLSLSCAASGFVFSSYDMSWVRQTPERGLEWVAYISSGGGITYAPSTVKGRFTVSRDNAKNTLYLQMNSLTSEDTAVYYCAAHYFGSSGPFAYWGQGTLVTVSS VL: DIQMTQSPASLSASVDRVTITCRASENIFSYLAWYQQKPGKSPKLLVYNTRTLAEGVPSRFSGSGSGTDFSLTISSLQPEDFATYYCQHHYGTPFTFGSGTKLEIKR	3.4	–	–
B12-3 (antibody, human IgG1, kappa, V domains shown, heavy-chain glycan trimmed to core GlcNAc, 6-N3-GalNAc attached and reacted with BCN-HS-PEG2-HS-(va-PAB-Ex)2 3 (exatecan payload); average DAR 3.75) VH: QVQLVQSGAEVKKPGASVKVSCQASGYRFSNFVIHWVRQAPGQRFEWMGWINPYNGNKEFSAKFQDRVTFTADTSANTAYMELRSLRSADTAVYYCARVGPYSWDDSPQDNYYMDVWGKGTTVIVSS VL: EIVLTQSPGTLSLSPGERATFSCRSSHSIRSRRVAWYQHKPGQAPRLVIHGVSNRASGISDRFSGSGSGTDFTLTITRVEPEDFALYYCQVYGASSYTFGQGTKLERKR	> 100	–	–
